Experimental findings from patent publication US6821947 are described below.

This test has as its target human recombinant endorepellin tagged with His6, from 293-EBNA cells (human) (UniProt P98160). Nature of the test: cell-based or functional assay.
Chain of UniProt P98160 (P98160 3687-4391 limits assumed): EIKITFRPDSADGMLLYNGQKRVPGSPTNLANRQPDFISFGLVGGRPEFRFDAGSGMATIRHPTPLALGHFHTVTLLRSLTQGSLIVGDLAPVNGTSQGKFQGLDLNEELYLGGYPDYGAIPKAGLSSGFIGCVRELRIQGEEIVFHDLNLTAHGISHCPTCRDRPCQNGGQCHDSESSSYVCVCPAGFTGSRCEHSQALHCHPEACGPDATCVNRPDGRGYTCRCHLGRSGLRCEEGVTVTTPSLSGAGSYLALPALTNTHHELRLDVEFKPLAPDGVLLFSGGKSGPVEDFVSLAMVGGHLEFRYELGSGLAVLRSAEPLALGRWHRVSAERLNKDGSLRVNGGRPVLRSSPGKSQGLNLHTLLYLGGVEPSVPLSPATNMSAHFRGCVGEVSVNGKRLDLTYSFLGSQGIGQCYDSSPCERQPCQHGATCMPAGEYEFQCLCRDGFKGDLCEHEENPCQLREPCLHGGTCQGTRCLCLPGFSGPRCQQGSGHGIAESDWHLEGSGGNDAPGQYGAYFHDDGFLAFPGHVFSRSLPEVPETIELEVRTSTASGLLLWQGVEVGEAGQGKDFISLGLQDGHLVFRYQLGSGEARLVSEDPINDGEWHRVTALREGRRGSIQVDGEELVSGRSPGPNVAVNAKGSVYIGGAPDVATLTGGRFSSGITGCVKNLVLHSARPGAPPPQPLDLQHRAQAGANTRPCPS

“recombinant endostatin purified from Pichia pastoris yeast cells (Calbiochem-Novabiochem)”: the VEGF-induced HUVEC migration through fibrillar collagen (molar ratio of endostatin/endorepellin) is 1.
